# Assay results reported in patent publication US20240116985A1 (published 2024).
# Starred links: 1 amine or outer side, 2 acyl side, 3 side chain; linkers in the order of their positions; H or OH if unused. Positions of bridges follow the written chain, without caps; N, C: chain ends. Non-standard residues stand in square brackets, D forms with d. Primed or numbered codes have the meaning given here. *: point of attachment. PyrS2″ = (S)-3-amino-1-((pent-4-en-1-yloxy)carbonyl)pyrrolidine-3-carboxylic acid (stapling residue), C=CCCCOC(=O)N1CC[C@@](N[*:1])(C(=O)[*:2])C1; B5(4) = 2,2-bis(4-pentenyl)glycine = 2-amino-2-(pent-4-en-1-yl)hept-6-enoic acid (stitching residue), C=CCCCC(CCCC=C)(N[*:1])C(=O)[*:2]; TfeGA = (S)-2-amino-3-((carboxymethyl)(2,2,2-trifluoroethyl)amino)propanoic acid, O=C([C@H](CN(CC(=O)[*:3])CC(F)(F)F)N[*:1])[*:2]; PyrS2 = (S)-3-amino-1-((pent-4-en-1-yloxy)carbonyl)pyrrolidine-3-carboxylic acid, C=CCCCOC(=O)N1CC[C@@](N[*:1])(C(=O)[*:2])C1; PyrS1 = (S)-3-amino-1-((but-3-en-1-yloxy)carbonyl)pyrrolidine-3-carboxylic acid, C=CCCOC(=O)N1CC[C@@](N[*:1])(C(=O)[*:2])C1; MorphAsn = (S)-2-amino-4-morpholino-4-oxobutanoic acid, O=C(C[C@H](N[*:1])C(=O)[*:2])N1CCOCC1; B5(3) = 2,2-bis(4-pentenyl)glycine (stitching residue), C=CCCCC(CCCC=C)(N[*:1])C(=O)[*:2]; B5 = 2-amino-2-(pent-4-en-1-yl)hept-6-enoic acid, C=CCCCC(CCCC=C)(N[*:1])C(=O)[*:2]; B6 = 2-amino-2-(hex-5-en-1-yl)oct-7-enoic acid, C=CCCCCC(CCCCC=C)(N[*:1])C(=O)[*:2]; Me2Asn = listed as N4-methyl-L-asparagine, CNC(=O)C[C@H](N[*:1])C(=O)[*:2]; MeAsn = N4-methyl-L-asparagine, CNC(=O)C[C@H](N[*:1])C(=O)[*:2]; MeGln = N5-methyl-L-glutamine, CNC(=O)CC[C@H](N[*:1])C(=O)[*:2]; Phe(3-COOH) = N[C@@H](Cc1cccc(C(=O)O)c1)C(=O)O; 2F3MeF = Cc1cccc(C[C@H](N[*:1])C(=O)[*:2])c1F; Phe(2-CF3) = N[C@@H](Cc1ccccc1C(F)(F)F)C(=O)O; Phe(2-Br) = N[C@@H](Cc1ccccc1Br)C(=O)O; Phe(2-Cl) = N[C@@H](Cc1ccccc1Cl)C(=O)O; Bta = N[C@@H](Cc1csc2ccccc12)C(=O)O; αAllylPro = C=CC[C@@]1(C(=O)O)CCCN1; tBuAla = CC(C)(C)C[C@H](N)C(=O)O; 3Thi = N[C@@H](Cc1ccsc1)C(=O)O; Cha = N[C@@H](CC1CCCCC1)C(=O)O; AdamantC = not defined here; PyrS2(4) = not defined here; TfeGA″ = not defined here; Ac5c = NC1(C(=O)O)CCCC1; Aib = CC(C)(N)C(=O)O; Butyryl = CCCC(=O)*
# T1: B-cat-Halo (beta-catenin HaloTag fusion expressed in HEK293 cells) (UniProt P35222 1-781)
# T1 sequence (looked up): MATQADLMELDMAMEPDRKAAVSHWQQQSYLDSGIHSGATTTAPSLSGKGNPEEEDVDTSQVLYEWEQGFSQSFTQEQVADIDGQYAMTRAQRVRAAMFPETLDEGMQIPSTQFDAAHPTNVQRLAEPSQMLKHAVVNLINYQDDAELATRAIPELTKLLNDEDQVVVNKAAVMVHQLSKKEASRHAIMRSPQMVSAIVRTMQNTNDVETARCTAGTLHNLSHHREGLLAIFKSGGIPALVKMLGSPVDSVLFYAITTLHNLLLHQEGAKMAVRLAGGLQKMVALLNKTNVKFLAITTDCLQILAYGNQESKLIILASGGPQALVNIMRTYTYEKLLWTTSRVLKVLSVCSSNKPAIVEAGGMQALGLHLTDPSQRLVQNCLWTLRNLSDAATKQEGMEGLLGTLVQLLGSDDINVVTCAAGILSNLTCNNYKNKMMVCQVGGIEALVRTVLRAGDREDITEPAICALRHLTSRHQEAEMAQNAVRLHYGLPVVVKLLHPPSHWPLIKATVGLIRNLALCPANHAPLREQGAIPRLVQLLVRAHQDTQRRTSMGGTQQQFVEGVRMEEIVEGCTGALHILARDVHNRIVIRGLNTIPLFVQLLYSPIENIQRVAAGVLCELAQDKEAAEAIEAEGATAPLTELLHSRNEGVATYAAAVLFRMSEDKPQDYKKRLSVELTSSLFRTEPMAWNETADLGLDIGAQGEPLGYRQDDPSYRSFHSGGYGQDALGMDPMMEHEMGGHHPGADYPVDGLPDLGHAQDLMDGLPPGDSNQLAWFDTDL
# T2: B-cat-Halo (UniProt P35222 1-781, HaloTag NanoBRET 618 Ligand bound to the HaloTag in the assay)
# T2 sequence (looked up): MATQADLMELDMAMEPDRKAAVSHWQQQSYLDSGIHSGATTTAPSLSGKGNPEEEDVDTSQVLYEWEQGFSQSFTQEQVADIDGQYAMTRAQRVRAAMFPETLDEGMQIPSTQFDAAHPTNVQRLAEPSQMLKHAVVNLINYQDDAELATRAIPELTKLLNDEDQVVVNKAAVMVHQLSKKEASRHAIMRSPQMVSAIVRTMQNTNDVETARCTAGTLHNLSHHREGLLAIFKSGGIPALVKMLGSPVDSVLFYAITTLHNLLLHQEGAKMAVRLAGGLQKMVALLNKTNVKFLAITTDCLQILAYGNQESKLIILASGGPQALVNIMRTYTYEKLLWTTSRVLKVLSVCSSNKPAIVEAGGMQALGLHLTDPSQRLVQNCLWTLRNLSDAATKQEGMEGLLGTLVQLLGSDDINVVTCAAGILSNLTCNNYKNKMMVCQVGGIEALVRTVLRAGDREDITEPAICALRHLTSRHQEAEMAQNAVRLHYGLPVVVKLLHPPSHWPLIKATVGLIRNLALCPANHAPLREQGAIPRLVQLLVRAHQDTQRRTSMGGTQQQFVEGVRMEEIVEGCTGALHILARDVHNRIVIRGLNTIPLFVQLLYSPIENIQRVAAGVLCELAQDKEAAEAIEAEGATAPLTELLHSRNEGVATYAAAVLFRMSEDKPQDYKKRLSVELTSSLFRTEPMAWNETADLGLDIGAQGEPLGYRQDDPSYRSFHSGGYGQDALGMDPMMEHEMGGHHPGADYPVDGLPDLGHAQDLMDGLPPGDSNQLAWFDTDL
# B1: I-927 (peptide)
# peptide: Ac-[αAllylPro]D[tBuAla][B5(3)]D[TfeGA″]AAFN[PyrS2(4)][2F3MeF][Bta]Q-NH2
# modifications: staple 1-4, 4-11; reading uncertain; also: staple stereoisomer, earlier-eluting HPLC peak
# B2: I-919 (peptide)
# peptide: Ac-[αAllylPro]D[tBuAla][B5(3)]DDAAFN[PyrS2(4)][3Thi][Bta]QK(AdamantC)-NH2
# modifications: staple 1-4, 4-11; reading uncertain; also: printed as Ac-PL3-Asp-Npg-B5-Asp-Asp-Ala-Ala-Phe-Asn-PyrS2-3Thi-BztA-Gln-[AdamantC]Lys-NH2
# Molecular target: T1, B-cat-Halo (beta-catenin HaloTag fusion …)
# Assay: cell-based or functional assay
row,Binder,NanoBRET Abs IC50 [µM]
1,"Ac-[αAllylPro]D[tBuAla][B5]NT[Aib]AFN[PyrS2][3Thi][Bta][MeAsn]-NH2 (staple 1-4, 4-11) [I-2495]",> 20
2,"Ac-[αAllylPro]N[Cha][B5]DQQAFL[PyrS2]F[Bta][MorphAsn]-NH2 (staple 1-4, 4-11) [I-2504]",> 20
3,"Ac-[αAllylPro]N[Cha][B5]DQ[Me2Gln]AFL[PyrS2]F[Bta][MorphAsn]-NH2 (staple 1-4, 4-11) [I-2501]",> 20
4,"Ac-[αAllylPro]D[tBuAla][B5]NT[Aib]AF[Me2Asn][PyrS2][3Thi][Bta]N-NH2 (staple 1-4, 4-11) [I-2496]",> 20
5,"Ac-[αAllylPro]D[tBuAla][B5]NT[Aib]AFN[PyrS2][3Thi][Bta][Me2Asn]-NH2 (staple 1-4, 4-11) [I-2494]",> 20
6,"Ac-[αAllylPro]D[tBuAla][B6]D[Phe(3-COOH)]AAFL[PyrS1][Phe(2-CF3)][Bta]Q-NH2 (staple 1-4, 4-11) [I-2508]",27.3
7,"Ac-[αAllylPro]D[tBuAla][B5]NT[Aib]AF[MeAsn][PyrS2][3Thi][Bta]N-NH2 (staple 1-4, 4-11) [I-2497]",> 20
8,"Ac-[αAllylPro]D[tBuAla][B5(4)]NT[Ac5c]AFN[PyrS2″][3Thi][Bta]Q-NH2 (staple 1-4, 4-11) [I-2493]",> 20
9,"Ac-[αAllylPro]N[Cha][B5]DQ[MeGln]AFL[PyrS2]F[Bta][MorphAsn]-NH2 (staple 1-4, 4-11) [I-2502]",> 20

# Molecular target: T2, B-cat-Halo
# Assay: cell-based or functional assay
row,Binder,NanoBRET Abs IC50 [µM]
1,B1,8.2
2,"Ac-[αAllylPro]D[tBuAla][B5(3)]D[TfeGA]AAFN[PyrS2″][Phe(2-Br)][Bta]Q-NH2 (staple 1-4, 4-11) [I-924]",3.3
3,"Ac-[αAllylPro]D[tBuAla][B5(3)]D[TfeGA]AAFF[PyrS2″][Phe(2-Cl)][Bta]Q-NH2 (staple 1-4, 4-11) [I-923]",6
4,"Ac-[αAllylPro]D[tBuAla][B5(3)]D[TfeGA]AAFN[PyrS2″][Phe(2-CF3)][Bta]Q-NH2 (staple 1-4, 4-11; not fully specified) [I-928]",6.1
5,B2,15.2
6,"Ac-[αAllylPro]D[tBuAla][B5(3)]DDAAFN[PyrS2″][3Thi][Bta]QK(Butyryl)-NH2 (staple 1-4, 4-11) [I-917]",19.7
